# The supplement of paper PMC7877785
# ± gives the uncertainty stated by the source.
# Assay: self-splicing fitness, log relative to wild type (ln ratio); higher = more splicing; Tetrahymena group I intron in knt gene, E. coli kanamycin selection, DiMSum; sequences stand for … in CUCUCU…GGAGGGAAAAGUUAUCAGGCAUGCACCUGGUAGCUAGUCUUUAAACCAAUAGAUUGCAUCGGUUUAAAAGGCAAGACCGUCAAAUUGCGGGAAAGGGGUCAACAGCCGUUCAGUACCAAGUCUCAGGGGAAACUUUGAGAUGGCCUUGCAAAGGGUAUGGUAAUAAGCUGACGGACAUGGUCCUAACCACGCAGCCAAGUCCUAAGUCAACAGAUCUUCUGUUGAUAUGGAUGCAGUUCACAGACUAAAUGUCGGUCGGGGAAGAUGUAUUCUUCUCAUAAGAUAUAGUCGGACCUCUCCUUAAUGGGAGCUAGCGGAUGAAGUGAUGCAACACUGGAGCCGCUGGGAACUAAUUUGUAUGCGAAAGUAUAUUGAUUAGUUUUGGAGUACUCGUGGUCG
# Summary of the method: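 Colonies from six replicate transformations of E. coli BL21(DE3) were pooled and amplicon-sequenced on an Illumina HiSeq 2500. The library placed an intron with all eight P1ex-region nucleotides randomised inside the knt kanamycin-resistance gene on pET-22b(+), and cells grew overnight at 37°C or 30°C on LB agar with or without 25 μg/mL kanamycin (plus 100 μg/mL carbenicillin, 50 μM IPTG, 0.2% rhamnose). Fitness is the DiMSum error-weighted combination of wild-type-normalised replicate fold changes, kanamycin versus none.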
sequence,measurement,setting,value
UGACAGCAAUAUUACGGUGA,self-splicing fitness (ln),30 °C,-0.731 ± 0.052
same,self-splicing fitness (ln),37 °C,0.000318 ± 0.071
AAUAAGCAAUAUUACGGCGU,self-splicing fitness (ln),30 °C,0.428 ± 0.082
same,self-splicing fitness (ln),37 °C,0.242 ± 0.1
CUAAAGCAAUAUUACGGAAC,self-splicing fitness (ln),30 °C,-2.36 ± 0.19
same,self-splicing fitness (ln),37 °C,-1.42 ± 0.17
GGUCAGCAAUAUUACGCGAG,self-splicing fitness (ln),30 °C,-1.93 ± 0.13
same,self-splicing fitness (ln),37 °C,-0.499 ± 0.13
CGGCAGCAAUAUUACGACGU,self-splicing fitness (ln),30 °C,-1.45 ± 0.066
same,self-splicing fitness (ln),37 °C,-0.471 ± 0.071
UUACAGCAAUAUUACGCUGC,self-splicing fitness (ln),30 °C,-2.9 ± 0.35
CCCUAGCAAUAUUACGAUGU,self-splicing fitness (ln),30 °C,-3.58 ± 0.22
same,self-splicing fitness (ln),37 °C,-2.55 ± 0.18
GUACAGCAAUAUUACGUCAC,self-splicing fitness (ln),37 °C,-2.14 ± 0.31
UUUAAGCAAUAUUACGUCAG,self-splicing fitness (ln),30 °C,-0.728 ± 0.12
same,self-splicing fitness (ln),37 °C,-0.571 ± 0.12
GAGCAGCAAUAUUACGCUCC,self-splicing fitness (ln),30 °C,-2.25 ± 0.35
same,self-splicing fitness (ln),37 °C,-0.34 ± 0.38
AGUUAGCAAUAUUACGAUCC,self-splicing fitness (ln),30 °C,0.593 ± 0.14
same,self-splicing fitness (ln),37 °C,-0.367 ± 0.15
UCGUAGCAAUAUUACGGGAC,self-splicing fitness (ln),37 °C,-2.5 ± 0.44
GGUGAGCAAUAUUACGACGU,self-splicing fitness (ln),30 °C,-0.578 ± 0.13
same,self-splicing fitness (ln),37 °C,-0.013 ± 0.15
CUCUAGCAAUAUUACGAGGU,self-splicing fitness (ln),30 °C,-3.21 ± 0.26
same,self-splicing fitness (ln),37 °C,-3.6 ± 0.29
AUAGAGCAAUAUUACGUAUU,self-splicing fitness (ln),30 °C,-2.46 ± 0.16
same,self-splicing fitness (ln),37 °C,-1.1 ± 0.17
AUAUAGCAAUAUUACGAUUA,self-splicing fitness (ln),30 °C,-0.958 ± 0.23
same,self-splicing fitness (ln),37 °C,-0.617 ± 0.2
GACUAGCAAUAUUACGAAAG,self-splicing fitness (ln),30 °C,-2.97 ± 0.16
same,self-splicing fitness (ln),37 °C,-1.8 ± 0.2
AACAAGCAAUAUUACGGGCA,self-splicing fitness (ln),30 °C,-0.586 ± 0.058
same,self-splicing fitness (ln),37 °C,-0.0288 ± 0.066
GAUUAGCAAUAUUACGUAAU,self-splicing fitness (ln),30 °C,-3.06 ± 0.18
same,self-splicing fitness (ln),37 °C,-0.741 ± 0.12
UUGAAGCAAUAUUACGAAGU,self-splicing fitness (ln),30 °C,-3.34 ± 0.19
same,self-splicing fitness (ln),37 °C,-1.69 ± 0.21
UUGGAGCAAUAUUACGUUAC,self-splicing fitness (ln),30 °C,-3.66 ± 0.33
same,self-splicing fitness (ln),37 °C,-2.25 ± 0.24
CAAUAGCAAUAUUACGCGUG,self-splicing fitness (ln),30 °C,-1.93 ± 0.092
same,self-splicing fitness (ln),37 °C,-1.44 ± 0.095
CAUUAGCAAUAUUACGUUUU,self-splicing fitness (ln),30 °C,-4 ± 0.24
same,self-splicing fitness (ln),37 °C,-3.21 ± 0.24
UAAUAGCAAUAUUACGAUUC,self-splicing fitness (ln),37 °C,-2.05 ± 0.23
UAAAAGCAAUAUUACGUGCU,self-splicing fitness (ln),30 °C,-2.62 ± 0.1
same,self-splicing fitness (ln),37 °C,-1.56 ± 0.11
GCUCAGCAAUAUUACGCCGA,self-splicing fitness (ln),30 °C,-2.43 ± 0.26
same,self-splicing fitness (ln),37 °C,-1.39 ± 0.34
AAUGAGCAAUAUUACGCCUG,self-splicing fitness (ln),30 °C,-3.5 ± 0.2
same,self-splicing fitness (ln),37 °C,-2.85 ± 0.26
UUCCAGCAAUAUUACGAUUG,self-splicing fitness (ln),30 °C,-2.03 ± 0.12
same,self-splicing fitness (ln),37 °C,-1.47 ± 0.16
CUACAGCAAUAUUACGGGGC,self-splicing fitness (ln),30 °C,-2.95 ± 0.2
same,self-splicing fitness (ln),37 °C,-2.57 ± 0.22
ACAUAGCAAUAUUACGGUGU,self-splicing fitness (ln),30 °C,-3.8 ± 0.21
same,self-splicing fitness (ln),37 °C,-3.54 ± 0.3
UCAAAGCAAUAUUACGAAGG,self-splicing fitness (ln),30 °C,-2.26 ± 0.1
same,self-splicing fitness (ln),37 °C,-1.05 ± 0.13
UCGAAGCAAUAUUACGUUUA,self-splicing fitness (ln),30 °C,-3.07 ± 0.45
same,self-splicing fitness (ln),37 °C,-0.87 ± 0.29
GGCAAGCAAUAUUACGAUGG,self-splicing fitness (ln),30 °C,-2.61 ± 0.19
same,self-splicing fitness (ln),37 °C,-1.52 ± 0.16
UCAAAGCAAUAUUACGGCCG,self-splicing fitness (ln),30 °C,-0.434 ± 0.1
same,self-splicing fitness (ln),37 °C,0.158 ± 0.17
ACUUAGCAAUAUUACGAUGC,self-splicing fitness (ln),30 °C,-1.04 ± 0.091
same,self-splicing fitness (ln),37 °C,-0.644 ± 0.11
UAAGAGCAAUAUUACGAAAU,self-splicing fitness (ln),37 °C,-1.61 ± 0.32
GAUAAGCAAUAUUACGGUCG,self-splicing fitness (ln),30 °C,-0.842 ± 0.1
same,self-splicing fitness (ln),37 °C,0.117 ± 0.13
GAAGAGCAAUAUUACGGUAG,self-splicing fitness (ln),30 °C,-3.51 ± 0.17
same,self-splicing fitness (ln),37 °C,-3.01 ± 0.22
CUAUAGCAAUAUUACGCUCU,self-splicing fitness (ln),30 °C,-3.4 ± 0.29
same,self-splicing fitness (ln),37 °C,-2.3 ± 0.34
